The text below walks through data of US20140349341.

The subject of data set [1] is Mgat1 ZFN left monomer (CompoZr, FokI fusion) (synthetic construct). The experiment in a line: cell_activity. The note with it: Cel-I assay day 3 in CHO cells (9.6% day 10); value is for ZFN pair; spacer ccagca.
The subject of data set [2] is Mgat1 ZFN right monomer (CompoZr, FokI fusion) (synthetic construct). Description: cell_activity. The following applies: Cel-I assay day 3 in CHO cells (9.6% day 10); value is for ZFN pair; spacer ccagca.

As to “AACAAGTTCAAGTTC (double strand) [CHO Mgat1 ZFN left half-site]”, the activity in data set [1] came out at 8.8%. Regarding “GCTGTGGTAGTGGAGGAC (double strand) [CHO Mgat1 ZFN right half-site]”, the activity in data set [2] came to 8.8%.
